Measured values from US7740850B2, “PDGFRβ-specific antibodies” (ImClone, LLC, priority 2007, dated 2010).

Tests used:
human PDGFRβ = assay: Cross-reactivity binding test (soluble recombinant protein or cell-surface receptor on human tumor cell lines); details: soluble recombinant protein or cell-surface-expressed receptor on human tumor cell lines
[1] = tested on: Caki-1 kidney carcinoma xenograft; assay: Subcutaneous tumor xenograft model; format: in vivo, mouse
Experimental: Six xenograft models, SK-OV-3, OV-CAR-8, BxPC-3, OV-CAR-5, Caki-1 and NCI-H460 (A to F, respectively) were used to examine the effects of 1B3 on xenograft tumors in athymic nude mice. Mice with established tumors (˜250-300 mm^3) were randomly grouped and treated with 1B3, normal human IgG, or saline by intraperitoneal injection twice weekly (except for BxPC-3 model where the mice were treated three times a week) at the dose indicated. Tumor volumes were measured twice a week and are presented as mean±SEM. *1 indicates the loss of one mouse due to severe illness. 1B3 binds to mouse, but not human, PDGFRβ. Accordingly, the observed responses to treatment result from inhibition of stimulation of host cells.
Antitumor activity of anti-mPDGFRβ antibody in tumor xenograft models. Six human xenograft tumor models, including three ovarian carcinoma (SK-OV-3, OV-CAR-5 and OV-CAR-8), one pancreatic carcinoma (BxPC3), one lung carcinoma (NCI-H460), and one kidney carcinoma (Caki-1), were used to assess the antitumor activity of 1B3 in vivo. […] Tumor sizes and mouse body weight were measured twice a week. Tumor volume was calculated using the formula: π/6×(length×width^2), where length=longest diameter and width=diameter perpendicular to length. The ratio of average tumor volume in the treatment group versus that in the control group (T/C %) was calculated. […]

mouse PDGFRα = mouse PDGFRα (Mus musculus, UniProt P26618); assay: Binding to PDGFRα; details: data not shown
human xenograft tumors = assay: Human tumor xenograft models in athymic nude mice (statements over several models); format: in vivo; details: all six xenograft models, i.p. up to 60 mg/kg
Experimental: Antitumor activity of anti-mPDGFRβ antibody in tumor xenograft models. Six human xenograft tumor models, including three ovarian carcinoma (SK-OV-3, OV-CAR-5 and OV-CAR-8), one pancreatic carcinoma (BxPC3), one lung carcinoma (NCI-H460), and one kidney carcinoma (Caki-1), were used to assess the antitumor activity of 1B3 in vivo. Athymic (nu/nu) mice (female, 7-8 weeks of age) were housed for 7-10 days before xenograft implantation. Each mouse was injected subcutaneously with 3-10×10^6 cells of SK-OV-3, OVCAR-5, OVCAR-8, Caki-1, BxPC3 or NCI-H460 tumor cells. When tumors reached approximately 250-300 mm^3, mice were randomized into groups of 10 to 12 animals each and treated by intraperitoneal injection, 2 to 3 times per week, with 1B3, DC101, or 1B3 in combination with DC101. Human IgG and/or USP saline were used as control groups. Tumor sizes and mouse body weight were measured twice a week. Tumor volume was calculated using the formula: π/6×(length×width^2), where length=longest diameter and width=diameter perpendicular to length. The ratio of average tumor volume in the treatment group versus that in the control group (T/C %) was calculated. Statistic analysis was performed by Student's t-test.
The xenograft cell lines were BxPC-3, MIA-PaCa-2, Detroit-562, HCT-8, NCI-H460, NCI-H292, and HCT-116. […] (FIG. 10 and Table 3). […]

β1-2 = molecular target: T1, β1-2 (Homo sapiens, UniProt P09619); assay: Epitope mapping, shorter version of PDGFRβ (D1D2); format: binding; details: ✓ / X, key not given
T1 construct: Shorter versions of PDGFRβ, including D1D2, D2D3 and D1D2D3, were then made; made in house
Experimental: (§1) 2C5 binds to domain 1 (D1) and domain 2 (D2) of PDGFRβ. Various chimeric constructs of PDGFRβ and PDGFRα were first made by domain swapping, starting from N-terminus to C-terminus with PDGFRβ domain(s) replacing PDGFRα domain(s). The PDGFRβ/α chimera were tested for the ability of 2C5 binding. Shorter versions of PDGFRβ, including D1D2, D2D3 and D1D2D3, were then made to confirm the 2C5 binding domains on PDGFRβ.

2β3α = assay: Epitope mapping, PDGFRβ/α chimera; format: binding; details: ✓ / X, key not given
Experimental: as §1, with “Various” for “2C5 binds to domain 1 (D1) and domain 2 (D2) of PDGFRβ. Various”

PDGFRβ = assay: Epitope mapping, binding domains; details: chimeric and shorter PDGFRβ constructs
Experimental: as §1

h5β = h5β (Homo sapiens, UniProt P09619); assay: Epitope mapping; format: binding; details: ✓ / X, key not given
Experimental: as §1, with “Various” for “2C5 binds to domain 1 (D1) and domain 2 (D2) of PDGFRβ. Various”

T1 sequence (P09619 33-210): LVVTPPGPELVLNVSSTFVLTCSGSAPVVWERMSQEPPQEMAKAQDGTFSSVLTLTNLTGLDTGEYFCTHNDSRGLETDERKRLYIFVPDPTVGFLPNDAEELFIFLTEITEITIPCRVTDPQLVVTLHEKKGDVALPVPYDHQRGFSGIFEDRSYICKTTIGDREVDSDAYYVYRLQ
Chain of mouse PDGFRα (P26618 25-1089): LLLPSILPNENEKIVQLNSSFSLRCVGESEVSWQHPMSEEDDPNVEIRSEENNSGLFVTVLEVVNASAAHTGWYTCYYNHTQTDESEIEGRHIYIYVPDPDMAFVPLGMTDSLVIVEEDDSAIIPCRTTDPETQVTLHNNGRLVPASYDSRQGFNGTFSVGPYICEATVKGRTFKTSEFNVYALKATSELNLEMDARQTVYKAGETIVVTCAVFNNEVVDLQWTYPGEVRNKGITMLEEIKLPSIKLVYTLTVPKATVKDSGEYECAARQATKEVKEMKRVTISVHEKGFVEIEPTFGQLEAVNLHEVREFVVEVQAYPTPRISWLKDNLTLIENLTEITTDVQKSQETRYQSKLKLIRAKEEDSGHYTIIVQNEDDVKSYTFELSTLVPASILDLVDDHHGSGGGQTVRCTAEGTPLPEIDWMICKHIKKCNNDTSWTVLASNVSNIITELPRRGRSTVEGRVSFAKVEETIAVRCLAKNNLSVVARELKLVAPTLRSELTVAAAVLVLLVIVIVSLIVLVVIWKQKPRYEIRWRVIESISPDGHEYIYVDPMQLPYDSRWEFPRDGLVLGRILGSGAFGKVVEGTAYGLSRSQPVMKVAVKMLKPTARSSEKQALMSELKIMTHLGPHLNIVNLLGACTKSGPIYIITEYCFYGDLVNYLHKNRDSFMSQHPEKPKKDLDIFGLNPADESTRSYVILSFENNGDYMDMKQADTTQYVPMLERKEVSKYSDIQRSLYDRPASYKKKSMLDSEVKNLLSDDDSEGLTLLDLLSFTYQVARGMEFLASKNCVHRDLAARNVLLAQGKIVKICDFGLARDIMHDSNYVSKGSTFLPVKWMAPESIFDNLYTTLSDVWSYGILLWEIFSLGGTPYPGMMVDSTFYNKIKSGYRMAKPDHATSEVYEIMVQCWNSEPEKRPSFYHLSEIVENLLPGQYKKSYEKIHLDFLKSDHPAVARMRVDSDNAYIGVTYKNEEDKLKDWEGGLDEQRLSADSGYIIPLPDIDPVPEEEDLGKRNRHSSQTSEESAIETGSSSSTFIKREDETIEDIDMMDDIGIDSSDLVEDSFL
Chain of h5β (P09619 33-532 limits assumed): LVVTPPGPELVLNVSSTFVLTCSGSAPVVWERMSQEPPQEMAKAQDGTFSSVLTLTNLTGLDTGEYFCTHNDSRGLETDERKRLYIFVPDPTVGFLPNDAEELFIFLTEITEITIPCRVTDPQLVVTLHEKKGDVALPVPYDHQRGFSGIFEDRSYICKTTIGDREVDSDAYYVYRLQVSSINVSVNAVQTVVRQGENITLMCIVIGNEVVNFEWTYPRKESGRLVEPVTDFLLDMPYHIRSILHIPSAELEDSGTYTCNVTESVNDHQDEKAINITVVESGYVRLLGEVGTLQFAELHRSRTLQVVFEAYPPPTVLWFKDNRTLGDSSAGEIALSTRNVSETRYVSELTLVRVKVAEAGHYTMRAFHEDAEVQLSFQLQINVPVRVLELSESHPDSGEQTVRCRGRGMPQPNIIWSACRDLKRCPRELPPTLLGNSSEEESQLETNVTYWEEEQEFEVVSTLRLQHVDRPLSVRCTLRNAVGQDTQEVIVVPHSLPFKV
Chain of human PDGFRβ (P09619 33-532 limits assumed): as above

| Molecule | cross-reactivity, binding to human PDGFRβ (human PDGFRβ) | antitumor activity ([1]; Caki-1, 40 mg/kg three times per week or 60 mg/kg twice weekly) | Tumor Volume T/C % ([1]; Caki-1 xenograft, monotherapy) [%] | binding to mouse PDGFRα (mouse PDGFRα) | overt toxicity, including changes in body weight and animal behavior (human xenograft tumors) | binding to β1-2 (β1-2) | binding to 2β3α (2β3α) | binding domains on PDGFRβ (PDGFRβ) | binding to h5β (h5β) |
| --- | --- | --- | --- | --- | --- | --- | --- | --- | --- |
| 1B3: human anti-mouse PDGFRβ antibody from Fab phage display library, human κ/γ1 constant regions; SEQ ID NOS in Table 1 (antibody, listed as Homo sapiens, V domains shown, human kappa/gamma1 constant regions) VH: QVQLQESGGGLVKPGGSLRLSCAASGFTFSSYSMNWVRQAPGKGLEWVSSISSSSSYIYYADSVKGRFTISRDNSKNTLYLQMNSLRAEDTAVYYCAKGGRPLLVFDFWGQGTLVTVS VL: EIVMTQSPGTLSLSPGERATLSCRASQSVSSSYLAWYQQKPGQAPRLLIYDASKRATGIPARFSGSGSGTDFTLTISTLESEDSAVYYCQQRGYWPPITFGQGTRLEIKR | No cross-reactivity was observed | failed to show any antitumor activity | 65 | did not bind | did not cause any overt toxicity | – | – | – | – |
| 2C5: PDGFRβ-specific human antibody binding both human and murine PDGFRβ; SEQ ID NOS in Table 1 (antibody, listed as Homo sapiens, V domains shown) VH: QVQLVQSGAEVKKPGSSVKVSCKASGGTFSSYAISWVRQAPGQGLEWMGRIIPILGIANYAQKFQGRVTITADKSTSTAYMELSSLRSEDTAVYYCARDMGSRNYYYFYWGQGTLVTVSS VL: EIVLTQSPATLSLSPGERATLSCRASQSVGRYLAWYQQKPGQAPRLLIYGASNRATGIPARFSGSGSGTDFTLTISSLEPEDFAVYYCQQRSNWPLTFGGGTKVEIK | – | – | – | – | – | ✓ | ✓ | binds to PDGFRβ via both D1 and D2 of the receptor | ✓ |
